Paper PMC7193532 (Acta Crystallographica. Section D, Structural Biology, 2020)

Experiments:
Experiment in all cases: SPR
ecumicin (ECU) = details: read off a plot
rufomycin I (RUF-I) = details: read off a plot
ohmyungsamycin A (OMS-A) = details: read off a plot
[1] = biological target: ClpC1-FL mutant K85A (Mycobacterium tuberculosis) (UniProt P9WPC9)
[2] = biological target: ClpC1-NTD N-terminal mutant MVFER (Mycobacterium tuberculosis) (UniProt P9WPC9)
[3] = biological target: ClpC1-NTD N-terminal mutant FER (residues 2-145) (Mycobacterium tuberculosis) (UniProt P9WPC9)
[4] = biological target: ClpC1-FL mutant L92S/L96P (Mycobacterium tuberculosis) (UniProt P9WPC9)
[5] = biological target: ClpC1-FL mutant V14A (Mycobacterium tuberculosis) (UniProt P9WPC9)
[6] = biological target: ClpC1-FL mutant Q17A (Mycobacterium tuberculosis) (UniProt P9WPC9)
[7] = biological target: ClpC1-NTD MAFER (Mycobacterium tuberculosis) (UniProt P9WPC9)

ClpC1-NTD (SPR construct, His6-SUMO tag cleaved) (from UniProt P9WPC9) MVFER (Val inserted before Phe2)
Kd (ecumicin (ECU); parent: est. 51 nM): 4100 nM

full-length ClpC1 (ClpC1-FL) (from UniProt P9WPC9) K85A
Kd (rufomycin I (RUF-I); parent: est. 87 nM): 420 nM
Kd (ecumicin (ECU); parent: est. 68 nM): 580 nM
Kd (ohmyungsamycin A (OMS-A); parent: est. 350 nM): 1600 nM

full-length ClpC1 (ClpC1-FL) (from UniProt P9WPC9) Q17A
Kd (rufomycin I (RUF-I); parent: est. 87 nM): 1400 nM
Kd (ohmyungsamycin A (OMS-A); parent: est. 350 nM): 1300 nM

ClpC1-NTD (SPR construct, His6-SUMO tag cleaved) (from UniProt P9WPC9) MVAFER (ValAla inserted before Phe2)
Kd (rufomycin I (RUF-I); parent: est. 68 nM): 900 nM

rufomycin I (RUF-I) (peptide)
fold reduction in binding affinity against wild type [1]: 5 fold
fold reduction in binding affinity against wild type [2]: 6 fold
fold reduction in binding against wild type [3]: 5 fold
fold reduction in binding affinity against wild type [4]: 3 fold
fold reduction in binding affinity against wild type [5]: 8 fold
fold reduction in binding against wild type [6]: 17 fold

ClpC1-NTD (SPR construct, His6-SUMO tag cleaved) (from UniProt P9WPC9) M1del (FER)
Kd (rufomycin I (RUF-I); parent: est. 68 nM): 360 nM
Kd (ohmyungsamycin A (OMS-A); parent: est. 400 nM): 4900 nM

full-length ClpC1 (ClpC1-FL) (from UniProt P9WPC9) V14A
Kd (rufomycin I (RUF-I); parent: est. 87 nM): 630 nM
Kd (ohmyungsamycin A (OMS-A); parent: est. 350 nM): 1600 nM

ClpC1-NTD (SPR construct, His6-SUMO tag cleaved) (from UniProt P9WPC9) MAF (MAFER: Ala inserted before Phe2)
Kd (ecumicin (ECU); parent: est. 51 nM): 3800 nM
Kd (ohmyungsamycin A (OMS-A); parent: est. 400 nM): 9600 nM

full-length ClpC1 (ClpC1-FL) (from UniProt P9WPC9) L92S; L96P
Kd (rufomycin I (RUF-I); parent: est. 87 nM): 260 nM

ecumicin (peptide)
Kd [7]: 3500 nM

ClpC1-NTD (SPR construct, His6-SUMO tag cleaved) (from UniProt P9WPC9) AAFER (Met1Ala mutation and Ala insertion)
Kd (rufomycin I (RUF-I); parent: est. 68 nM): 1200 nM
Kd (ecumicin (ECU); parent: est. 51 nM): 3300 nM
Kd (ohmyungsamycin A (OMS-A); parent: est. 400 nM): 9200 nM
